From the supplement of paper PMC9112550, “Optimization of the antimicrobial peptide Bac7 by deep mutational scanning” (BMC Biology, 2022)

Each sequence was assayed on Escherichia coli TOP10 (assay: shrunken log2 fold change of peptide-encoding DNA abundance (4.5 h post-induction vs induction); higher = less antimicrobial activity (less host growth inhibition)). Settings: time post-induction: 4.5 h; library: site-saturation at positions 5, 18, 19, 20.
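Note: peptides expressed intracellularly from a pBAD plasmid library in pooled LB shake-flask culture, induced with 0.3% L-arabinose, DNA abundance read by NGS, three biological replicates, DESeq2 with apeglm shrinkage.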

Sequence | shrunken log2 fold change
RRIRSRPPRLPRPRPRPFFAPRP | 0.205
RRIRERPPRLPRPRPRPKDSPRP | -0.212
RRIRRRPPRLPRPRPRPRVMPRP | 0.413
RRIRMRPPRLPRPRPRPMDYPRP | -0.00149
RRIRKRPPRLPRPRPRPDGRPRP | 0.0261
RRIRFRPPRLPRPRPRPEPDPRP | -0.0658
RRIRDRPPRLPRPRPRPTRLPRP | 0.491
RRIRARPPRLPRPRPRPTDWPRP | 0.712
RRIRTRPPRLPRPRPRPHIHPRP | -0.102
RRIRTRPPRLPRPRPRPWYAPRP | -0.521
RRIRPRPPRLPRPRPRPEIGPRP | 0.0772
RRIRVRPPRLPRPRPRPEAMPRP | -0.0277
RRIRRRPPRLPRPRPRPQKNPRP | 0.204
RRIRDRPPRLPRPRPRPRCDPRP | -0.0149
RRIRIRPPRLPRPRPRPGAPPRP | 0.416
RRIRPRPPRLPRPRPRPQTNPRP | -0.0828
RRIRERPPRLPRPRPRPSNDPRP | -0.247
RRIRNRPPRLPRPRPRPFTTPRP | -0.0245
RRIRARPPRLPRPRPRPFMKPRP | 0.528
RRIRGRPPRLPRPRPRPFTPPRP | 0.0836
RRIRHRPPRLPRPRPRPLTEPRP | -0.342
RRIRIRPPRLPRPRPRPLMDPRP | -0.396

Sequence | shrunken log2 fold change
RRIRGRPPRLPRPRPRPQANPRP | 0.111
RRIRPRPPRLPRPRPRPVTRPRP | -0.0129
RRIRFRPPRLPRPRPRPFLDPRP | -0.169
RRIRKRPPRLPRPRPRPIHIPRP | -0.39
RRIRRRPPRLPRPRPRPSRNPRP | 0.453
RRIRVRPPRLPRPRPRPCVQPRP | 0.0444
RRIRWRPPRLPRPRPRPWYLPRP | -0.193
RRIRCRPPRLPRPRPRPRKNPRP | -0.00471
RRIRVRPPRLPRPRPRPCPIPRP | -0.296
RRIRHRPPRLPRPRPRPICKPRP | -0.204
RRIRWRPPRLPRPRPRPGGGPRP | 0.953
RRIRDRPPRLPRPRPRPILAPRP | 0.115
RRIRVRPPRLPRPRPRPSKPPRP | -0.242
RRIRERPPRLPRPRPRPQSTPRP | -0.319
RRIRARPPRLPRPRPRPEVLPRP | 0.709
RRIRCRPPRLPRPRPRPLEPPRP | 0.0773
RRIRVRPPRLPRPRPRPWAQPRP | -0.365
RRIRYRPPRLPRPRPRPSAFPRP | -0.607
RRIRIRPPRLPRPRPRPIVFPRP | -0.144
RRIRKRPPRLPRPRPRPPWIPRP | -0.0983
RRIRDRPPRLPRPRPRPDSLPRP | 0.0462
RRIRHRPPRLPRPRPRPSSTPRP | -0.741

Sequence | shrunken log2 fold change
RRIRARPPRLPRPRPRPLRFPRP | 0.396
RRIRHRPPRLPRPRPRPPGPPRP | 0.196
RRIRCRPPRLPRPRPRPNFYPRP | -0.228
RRIRCRPPRLPRPRPRPWLLPRP | -0.381
RRIRNRPPRLPRPRPRPTNGPRP | -0.0138
RRIRSRPPRLPRPRPRPNRCPRP | 0.173
RRIRKRPPRLPRPRPRPCSLPRP | -0.529
RRIRVRPPRLPRPRPRPDKTPRP | -0.0309
RRIRSRPPRLPRPRPRPRRRPRP | 0.312
RRIRCRPPRLPRPRPRPCKHPRP | -0.339
RRIRQRPPRLPRPRPRPMIWPRP | -0.79
RRIRSRPPRLPRPRPRPVDWPRP | 0.306
RRIRERPPRLPRPRPRPVGCPRP | 0.168
RRIRYRPPRLPRPRPRPSECPRP | -0.347
RRIRCRPPRLPRPRPRPECEPRP | 0.757
RRIRYRPPRLPRPRPRPKGEPRP | -0.212
RRIRLRPPRLPRPRPRPHPDPRP | -0.111
RRIRYRPPRLPRPRPRPCILPRP | 0.00867
RRIRIRPPRLPRPRPRPDADPRP | 0.194
RRIRHRPPRLPRPRPRPDYWPRP | -0.187
RRIRTRPPRLPRPRPRPVSLPRP | -0.298
RRIRARPPRLPRPRPRPAFTPRP | 0.315

Sequence | shrunken log2 fold change
RRIRTRPPRLPRPRPRPNYLPRP | -0.66
RRIRGRPPRLPRPRPRPCPHPRP | 0.205
RRIRHRPPRLPRPRPRPLAVPRP | 0.0391
RRIRWRPPRLPRPRPRPMHDPRP | 0.229
RRIRCRPPRLPRPRPRPPAKPRP | 0.741
RRIRPRPPRLPRPRPRPSVAPRP | 0.0839
RRIRSRPPRLPRPRPRPVFMPRP | -0.236
RRIRLRPPRLPRPRPRPPHIPRP | 0.0882
RRIRTRPPRLPRPRPRPMMRPRP | 0.933
RRIRCRPPRLPRPRPRPFLTPRP | -0.565
RRIRPRPPRLPRPRPRPKRAPRP | 0.395
RRIRIRPPRLPRPRPRPSAFPRP | -0.15
RRIRVRPPRLPRPRPRPWLGPRP | -0.0696
RRIRSRPPRLPRPRPRPNTWPRP | -0.637
RRIRERPPRLPRPRPRPLPHPRP | -0.438
RRIRWRPPRLPRPRPRPNSRPRP | 0.0524
RRIRARPPRLPRPRPRPYEEPRP | -0.441
RRIRERPPRLPRPRPRPTVPPRP | -0.237
RRIRRRPPRLPRPRPRPVGFPRP | 0.362
RRIRMRPPRLPRPRPRPNWCPRP | 0.0361
RRIRVRPPRLPRPRPRPNGMPRP | -0.32
RRIRHRPPRLPRPRPRPKRMPRP | 0.101

Sequence | shrunken log2 fold change
RRIRLRPPRLPRPRPRPYGGPRP | -0.0286
RRIRARPPRLPRPRPRPQKVPRP | 0.0196
RRIRQRPPRLPRPRPRPLWEPRP | 0.025
RRIRNRPPRLPRPRPRPYTVPRP | 0.0303
RRIRRRPPRLPRPRPRPMTAPRP | 0.0357
RRIRRRPPRLPRPRPRPSVRPRP | 0.238
RRIRYRPPRLPRPRPRPYCFPRP | -1
RRIRSRPPRLPRPRPRPSHPPRP | -0.277
RRIRFRPPRLPRPRPRPPTNPRP | 0.236
RRIRRRPPRLPRPRPRPDMEPRP | -0.0393
RRIRKRPPRLPRPRPRPRVHPRP | 0.252
RRIRLRPPRLPRPRPRPPCMPRP | -0.0839
RRIRQRPPRLPRPRPRPQVEPRP | -0.0173
RRIRWRPPRLPRPRPRPDLNPRP | 0.392
RRIRDRPPRLPRPRPRPFQTPRP | 0.0255
RRIRRRPPRLPRPRPRPLVGPRP | 0.239
RRIRMRPPRLPRPRPRPYRIPRP | -0.0176
RRIRLRPPRLPRPRPRPICNPRP | -0.243
RRIRHRPPRLPRPRPRPPCPPRP | -0.0235
RRIRGRPPRLPRPRPRPLRPPRP | 1.47
RRIRLRPPRLPRPRPRPPDIPRP | -0.0356
